Data on four molecules can be found in article PMC11612176 (The EMBO Journal, 2024).

The target of experiment [1] is RadA from S. pneumoniae (Strep-tagged, for cryoEM) (Streptococcus pneumoniae) (UniProt Q8DRP0). Briefly: cryo-EM structure; 7 uM RadA with 10 uM gapped hybrid DNA (combination CD) and 5 mM ATP-gamma-S, 30 min at 37 °C; Hepes 50 mM pH 8.0, NaCl 100 mM.
For experiment [2], the target named is ComM from L. pneumophila fused to a C-terminal His6-tag (Legionella pneumophila) (UniProt Q5ZXZ0). Nature of the experiment: cryo-EM structure.
Experiment [3] shares this target. Briefly: cryo-EM structure. This is another data set of the same source.
For experiment [4], the target named is RadA R301A mutant from S. pneumoniae (Streptococcus pneumoniae) (UniProt Q8DRP0). Nature of the experiment: not stated; oligomeric state of RadA as purified for the biochemical assays.
The target in the next experiment is T1, ComM (Legionella pneumophila, UniProt A0A3A6V972).
T1 construct: gene yifB
The following applies: 5 mM AMPPNP, dsDNA/ssDNA hybrid, pH 8.0, 37 °C incubation; active site at interface between adjacent subunits.

Read-outs that look alike come from different tables or passages of the source.

“RadA from S. pneumoniae (Strep-tagged, for cryoEM) (from UniProt Q8DRP0 1-420) (enzyme)”: the stoichiometry N in experiment [1] came out at 6.

As to “ComM from L. pneumophila fused to a C-terminal His6-tag (from UniProt Q5ZXZ0 1-503) (enzyme)”, the stoichiometry N in experiment [2] came out at 12; in experiment [3] it was 6. In turn, “RadA R301A mutant from S. pneumoniae (from UniProt Q8DRP0) (enzyme)” had a stoichiometry N in experiment [4] of 6. For the molecule `Nc1ncnc2c1ncn2[C@@H]1O[C@H](COP(=O)(O)OP(=O)(O)NP(=O)(O)O)[C@@H](O)[C@H]1O` [AMPPNP], the “cryoEM structure, 3.1 Å” value on ComM is reported as “AMPPNP, which is located at the interface between two adjacent subunits”.
